Values quoted from earlier work, collected in article PMC3670934.

Legend:
CCL11 (Homo sapiens) = CCL11 (Homo sapiens) (UniProt P51671)
CCL26 (Homo sapiens) = CCL26 (Homo sapiens) (UniProt Q9Y258)
CCL24 (Homo sapiens) = CCL24 (Homo sapiens) (UniProt O00175)
CCL24 (Homo sapiens), sequence (O00175 27-119): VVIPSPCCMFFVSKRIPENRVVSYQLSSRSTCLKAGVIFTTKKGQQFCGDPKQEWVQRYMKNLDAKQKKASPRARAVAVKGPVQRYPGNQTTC

CCR3, sequence (P51677 whole entry): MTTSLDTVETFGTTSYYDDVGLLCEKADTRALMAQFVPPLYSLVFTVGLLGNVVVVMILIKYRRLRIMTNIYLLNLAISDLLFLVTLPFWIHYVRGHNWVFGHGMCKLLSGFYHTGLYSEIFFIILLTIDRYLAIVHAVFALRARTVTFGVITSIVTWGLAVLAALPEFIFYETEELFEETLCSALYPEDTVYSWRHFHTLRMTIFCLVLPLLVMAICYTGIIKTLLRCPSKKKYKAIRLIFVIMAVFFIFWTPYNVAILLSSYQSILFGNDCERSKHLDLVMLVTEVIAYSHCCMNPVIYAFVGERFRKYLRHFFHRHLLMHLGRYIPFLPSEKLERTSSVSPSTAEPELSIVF
CCL11 (Homo sapiens), sequence (P51671 24-97): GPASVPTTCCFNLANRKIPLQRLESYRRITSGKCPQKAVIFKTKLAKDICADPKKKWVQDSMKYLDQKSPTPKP
CCL26 (Homo sapiens), sequence (Q9Y258 24-94): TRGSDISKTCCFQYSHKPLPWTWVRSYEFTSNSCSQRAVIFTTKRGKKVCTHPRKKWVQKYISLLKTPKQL

In the case of CCR3 (from UniProt P51677), the Kd (CCL11 (Homo sapiens)) is listed as 0.52 nM, the Kd (CCL26 (Homo sapiens)) is listed as 0.9 nM and the Kd (CCL24 (Homo sapiens)) is listed as 0.6 nM.
